Reference: patent US10369187B2, “Peptide regulators of JNK family kinases” (Vanderbilt University, priority 2017, dated 2019)

Key:
ASK1 = target: T1, ASK1 (Homo sapiens, UniProt Q99683); assay: Co-immunoprecipitation of HA-ASK1 with YFP construct from COS7 cells; format: binding; details: HA-ASK1 and YFP-T1A co-expressed in COS7 cells, anti-GFP antibody
T1 construct: expressed in transfected cells; host or cells: COS7
T1 sequence (Q99683 1-1374): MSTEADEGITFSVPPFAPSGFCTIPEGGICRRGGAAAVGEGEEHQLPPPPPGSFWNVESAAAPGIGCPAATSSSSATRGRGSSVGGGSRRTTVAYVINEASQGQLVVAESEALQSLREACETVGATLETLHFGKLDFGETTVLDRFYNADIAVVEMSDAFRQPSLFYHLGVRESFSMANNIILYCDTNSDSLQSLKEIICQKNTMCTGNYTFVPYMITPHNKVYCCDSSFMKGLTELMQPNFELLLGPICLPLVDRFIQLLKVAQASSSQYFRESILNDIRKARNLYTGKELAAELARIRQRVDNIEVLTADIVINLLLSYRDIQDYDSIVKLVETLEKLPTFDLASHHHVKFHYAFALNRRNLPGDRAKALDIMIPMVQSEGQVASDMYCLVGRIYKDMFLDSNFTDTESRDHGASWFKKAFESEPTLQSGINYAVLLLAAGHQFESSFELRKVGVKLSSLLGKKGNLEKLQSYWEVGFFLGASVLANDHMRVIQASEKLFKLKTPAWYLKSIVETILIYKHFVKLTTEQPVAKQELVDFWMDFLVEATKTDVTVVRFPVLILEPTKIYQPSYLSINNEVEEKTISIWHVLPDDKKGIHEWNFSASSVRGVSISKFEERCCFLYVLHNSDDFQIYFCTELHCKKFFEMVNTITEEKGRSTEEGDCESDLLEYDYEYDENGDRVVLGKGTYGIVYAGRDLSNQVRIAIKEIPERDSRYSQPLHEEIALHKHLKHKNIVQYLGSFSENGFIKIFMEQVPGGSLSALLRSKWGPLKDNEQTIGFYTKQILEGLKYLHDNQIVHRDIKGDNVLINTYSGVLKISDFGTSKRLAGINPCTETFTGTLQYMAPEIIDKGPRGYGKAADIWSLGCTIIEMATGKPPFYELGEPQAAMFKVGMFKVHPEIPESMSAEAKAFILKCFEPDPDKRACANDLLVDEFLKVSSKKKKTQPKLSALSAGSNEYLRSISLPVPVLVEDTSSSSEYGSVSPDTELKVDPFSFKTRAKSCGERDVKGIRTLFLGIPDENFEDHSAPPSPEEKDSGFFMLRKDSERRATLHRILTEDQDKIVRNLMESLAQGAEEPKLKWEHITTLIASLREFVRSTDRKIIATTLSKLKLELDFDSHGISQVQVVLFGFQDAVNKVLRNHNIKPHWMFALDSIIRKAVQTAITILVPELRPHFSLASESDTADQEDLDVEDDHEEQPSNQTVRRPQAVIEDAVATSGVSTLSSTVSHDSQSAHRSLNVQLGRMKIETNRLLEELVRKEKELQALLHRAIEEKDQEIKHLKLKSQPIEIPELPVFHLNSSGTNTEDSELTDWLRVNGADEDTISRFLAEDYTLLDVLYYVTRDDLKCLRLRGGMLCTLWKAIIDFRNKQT
Protocol: T1A was expressed in E. coli as an MBP-fusion and purified it on an amylose column^23. The ability of purified GST-MKK4 or GST-MKK7 (FIG. 1A) to bind MBP-T1A immobilized on an amylose column was tested in an in vitro pull-down assay, where MBP and MBP-arrestin-3 served as negative and positive controls, respectively (FIG. 1B). MBP-T1A, but not control MBP, effectively retained both kinases (FIG. 1B). […] Next, it was tested whether T1A binds the uppermost kinase in the cascade, ASK1. Because ASK1 is not available in purified form, HA-tagged ASK1 and YFP-tagged T1A (using YFP as a control) were co-expressed in COS7 cells, lysed the cells, and immunoprecipitated YFP constructs with anti-GFP antibody (FIG. 1C).

MKK4-JNK3 module = MKK4-JNK3 module (Homo sapiens, UniProt P45985+P53779); assay: In vitro phosphorylation of JNK3α2 by MKK4 (reconstituted module); format: biochemical
Protocol: Next, it was tested whether T1A acts as a scaffold facilitating signaling. To this end, experiments used purified proteins, because they provide the most definitive data supporting a direct interaction. As purified ASK1 is not available, MKK4-JNK3 and MKK7-JNK3 modules were reconstituted in the absence and presence of varying concentrations of synthetic purified T1A peptide and measured JNK3 phosphorylation (FIG. 2A). […] This dependence, where signaling is increased at lower scaffold concentrations and decreased at higher, was also found for scaffolding of these modules by full-length arrestin-3^20. It is believed to be a characteristic of simple scaffolds, which act by bringing the enzyme and substrate together, as lower scaffold concentrations make the formation of complete scaffold-enzyme-substrate ternary complexes likely, whereas higher concentrations increase the probability of formation of incomplete enzyme-scaffold and substrate-scaffold binary complexes, suppressing the signaling^25,26. The optimal concentration of a scaffolding protein for signaling depends on its affinity for the proteins it scaffolds^20,25,26.
JNK3α2^20,23, and MKK4 and MKK7^17,20 were expressed in E. coli and purified as previously described^40. The effect of arrestin-3 and MBP-T1A on the phosphorylation of JNK3α2 by MKK7 or MKK4 was analyzed by an in vitro kinase assay, as described^19,20. Briefly, the assays were conducted in 10 μL containing the following final concentrations: 50 nM active MKK7 or MKK4, 1 μM JNK3α2, and indicated concentrations of arrestin-3 or T1A. The mixtures were incubated individually at 30° C. for 10 sec. The reactions were stopped by the addition of 15 μL of Laemmli SDS sample buffer (Sigma) and 2 μl of total reaction sample was subjected to SDS-PAGE (8%) and transferred polyvinylidene difluoride (PVDF) membranes (Millipore, Bedford, Mass.). Phosphorylated JNK3α2 was visualized by rabbit anti-phospho JNK antibody (Cell Signaling) and the level of JNK phosphorylation was quantified.

MKK4-JNK3 module, sequence (P45985 whole entry): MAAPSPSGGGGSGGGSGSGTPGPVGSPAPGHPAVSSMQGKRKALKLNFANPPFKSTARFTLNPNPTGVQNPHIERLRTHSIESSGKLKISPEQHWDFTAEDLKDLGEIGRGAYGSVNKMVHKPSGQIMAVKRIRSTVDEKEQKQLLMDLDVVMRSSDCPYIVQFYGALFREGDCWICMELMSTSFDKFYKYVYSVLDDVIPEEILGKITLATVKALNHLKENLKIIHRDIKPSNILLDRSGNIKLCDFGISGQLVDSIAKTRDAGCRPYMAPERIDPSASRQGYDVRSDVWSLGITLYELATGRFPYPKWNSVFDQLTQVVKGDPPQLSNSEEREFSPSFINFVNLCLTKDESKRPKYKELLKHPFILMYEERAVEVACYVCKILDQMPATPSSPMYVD
MKK4-JNK3 module, sequence (P53779 whole entry): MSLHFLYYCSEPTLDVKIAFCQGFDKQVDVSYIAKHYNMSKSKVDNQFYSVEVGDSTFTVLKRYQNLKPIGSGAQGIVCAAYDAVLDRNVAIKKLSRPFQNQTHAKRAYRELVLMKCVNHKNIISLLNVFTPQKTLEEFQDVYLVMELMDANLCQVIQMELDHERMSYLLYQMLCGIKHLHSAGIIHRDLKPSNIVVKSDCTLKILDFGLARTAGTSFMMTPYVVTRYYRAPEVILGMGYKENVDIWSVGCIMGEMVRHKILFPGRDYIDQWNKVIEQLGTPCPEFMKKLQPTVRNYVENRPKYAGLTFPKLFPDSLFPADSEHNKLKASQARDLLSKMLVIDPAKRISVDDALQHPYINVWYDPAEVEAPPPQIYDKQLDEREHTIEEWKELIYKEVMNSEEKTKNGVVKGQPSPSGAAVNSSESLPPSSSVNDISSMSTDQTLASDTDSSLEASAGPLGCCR

optimal concentration for promoting JNK3 phosphorylation by MKK4 compared with MKK7-JNK3 module (MKK4-JNK3 module): lower than for MKK7-JNK3 module
optimal concentration relative to full-length arrestin-3, MKK4-JNK3 module (MKK4-JNK3 module): ~10 times lower
JNK3 phosphorylation level by MKK4 as a function of T1A concentration (MKK4-JNK3 module; 50 nM MKK4, 1 μM JNK3α2, 10 sec, 30° C., synthetic purified peptide): bell-shaped curves
Sequence: MGEKPGTRVFKKSSPNCKLTVYLGK (bovine) [T1A, first 25 residues of arrestin-3]
binding of ASK1 (co-immunoprecipitation) (ASK1): binds all upstream kinases of its activation cascade
